Test [1] deals with dynamic microtubules growing from surface-immobilized GMPCPP seeds (polymer of alpha/beta-tubulin). Description: TIRF microscopy; GFP-labelled motors (20-30 nM, or 50 pM for single molecules) on microtubules growing from immobilized GMPCPP seeds in 10 or 20 μM unlabelled tubulin, 1 mM ATP.
In test [2] the target is T1, taxol-stabilized microtubules (polymer of alpha/beta-tubulin), immobilized. The test can be described thus: single-molecule TIRF microscopy; spiking experiment, crowded conditions: pM GFP-labelled motor mixed with 15-25 nM unlabelled motor; binding durations at plus ends of taxol-stabilized microtubules.
T1 sequence (P68363 whole entry, chain 1 of 2): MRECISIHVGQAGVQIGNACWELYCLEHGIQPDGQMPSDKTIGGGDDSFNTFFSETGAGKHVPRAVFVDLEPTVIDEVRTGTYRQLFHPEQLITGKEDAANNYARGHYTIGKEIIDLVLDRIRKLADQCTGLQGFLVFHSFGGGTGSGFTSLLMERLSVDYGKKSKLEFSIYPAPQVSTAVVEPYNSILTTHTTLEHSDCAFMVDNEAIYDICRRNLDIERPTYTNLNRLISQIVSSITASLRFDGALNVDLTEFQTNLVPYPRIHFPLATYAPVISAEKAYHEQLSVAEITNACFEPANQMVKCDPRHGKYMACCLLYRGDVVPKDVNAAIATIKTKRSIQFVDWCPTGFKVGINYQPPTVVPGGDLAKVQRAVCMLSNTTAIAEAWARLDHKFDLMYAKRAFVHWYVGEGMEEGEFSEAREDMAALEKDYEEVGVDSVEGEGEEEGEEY
T1 sequence (A8K068 whole entry, chain 2 of 2, further chain): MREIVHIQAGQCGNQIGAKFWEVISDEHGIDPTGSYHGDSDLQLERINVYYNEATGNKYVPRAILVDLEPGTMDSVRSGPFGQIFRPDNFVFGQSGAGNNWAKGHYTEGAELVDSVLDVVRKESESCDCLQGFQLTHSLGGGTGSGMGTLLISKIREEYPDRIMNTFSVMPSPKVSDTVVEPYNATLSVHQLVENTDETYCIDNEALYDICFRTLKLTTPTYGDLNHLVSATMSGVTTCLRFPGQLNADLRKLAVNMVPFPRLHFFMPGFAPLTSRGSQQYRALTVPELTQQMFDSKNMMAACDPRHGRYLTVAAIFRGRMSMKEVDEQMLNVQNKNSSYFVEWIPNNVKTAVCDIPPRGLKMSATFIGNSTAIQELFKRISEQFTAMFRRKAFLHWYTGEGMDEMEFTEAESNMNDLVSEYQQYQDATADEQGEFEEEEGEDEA
Test [3] concerns the target T1, taxol-stabilized microtubules (polymer …). Description: single-molecule TIRF microscopy; GFP-labelled motor (25 pM) in 1 mM ATP on immobilized taxol-stabilized microtubules; pause lifetimes at plus ends, exponential fit; BRB80 pH 6.8.

Chain of dynamic microtubules growing from surface-immobilized GMPCPP seeds (polymer of alpha/beta-tubulin) (chain, as listed by the source, chain 1 of 2): as the sequence (P68363 whole entry, chain 1 of 2) above
Chain of dynamic microtubules growing from surface-immobilized GMPCPP seeds (polymer of alpha/beta-tubulin) (chain, as listed by the source, chain 2 of 2): as the sequence (A8K068 whole entry, chain 2 of 2, further chain) above

B1: Kin5_14GFP (dimeric kinesin-5 as Kin5_18 but with the neck linker shortened to 14 residues, GFP-tagged) (protein)
chain: MSSQNSFMASKKEDKGKNIQVVVRCRPFNQLERKASSHSVLECDSQRKEVYVRTGEVNDKLGKKTYTFDMVFGPAAKQIEVYRSVVCPILDEVIMGYNCTIFAYGQTGTGKTFTMEGERSSDEEFTWEQDPLAGIIPRTLHQIFEKLSENGTEFSVKVSLLEIYNEELFDLLSPSPDVGERLQMFDDPRNKRGVIIKGLEEISVHNKDEVYHILERGAARRKTASTLMNAYSSRSHSVFSVTIHMKETTVDGEELVKIGKLNLVDLAGSENIGRSGAVDKRAREAGNINQSLLTLGRVITALVERTPHIPYRESKLTRILQDSLGGRTKTSIIATVSPASINLEETVSTLDYANRAKSIMNKPEVNQKLTAEEWKRRYEKEKEKNARLKGKVEKLEIELARWRAGETVKAEEQINMEDLMEASTPNLEVEAAQTAAAEAALAAQRTALANMSASVAVNEQARLATECERLYQQLDDKDEEINQQSQYAEQLKEQVMEQEELIANARREYETLQSEMARIQQENESAKEEVKEVLQALEELAVNYDQKSQEIDNKNKDIDALNEELQQKQSVFNAASTELQQLKDM
modifications: not checked
For B1, the mean residence time at dynamic plus ends in test [1] amounted to 7.04 s. For the same molecule, the end duration at plus ends under crowded conditions in test [2] was determined as 2.61 s. In addition, the mean pause duration at plus ends in test [3] amounted to 7.2 s.

Source of the values: paper PMC4600729.
